Source: patent US20100316648A1 (published 2010)
Ends that are not written are not given here.

B1: Plg-RKT carboxyl-terminal peptide CEQSKLFSDK (SEQ ID NO: 33) (peptide)
peptide: CEQSKLFSDK
modifications: also: coupled to bovine serum albumin (BSA), attachment site not given here
notes: also called C-terminal peptide of mouse Plg-RKT; Plg-RKT polypeptide
B3: Plasminogen (ligand, UniProt P00747 20-810, looked up)
chain: EPLDDYVNTQGASLFSVTKKQLGAGSIEECAAKCEEDEEFTCRAFQYHSKEQQCVIMAENRKSSIIIRMRDVVLFEKKVYLSECKTGNGKNYRGTMSKTKNGITCQKWSSTSPHRPRFSPATHPSEGLEENYCRNPDNDPQGPWCYTTDPEKRYDYCDILECEEECMHCSGENYDGKISKTMSGLECQAWDSQSPHAHGYIPSKFPNKNLKKNYCRNPDRELRPWCFTTDPNKRWELCDIPRCTTPPPSSGPTYQCLKGTGENYRGNVAVTVSGHTCQHWSAQTPHTHNRTPENFPCKNLDENYCRNPDGKRAPWCHTTNSQVRWEYCKIPSCDSSPVSTEQLAPTAPPELTPVVQDCYHGDGQSYRGTSSTTTTGKKCQSWSSMTPHRHQKTPENYPNAGLTMNYCRNPDADKGPWCFTTDPSVRWEYCNLKKCSGTEASVVAPPPVVLLPDVETPSEEDCMFGNGKGYRGKRATTVTGTPCQDWAAQEPHRHSIFTPETNPRAGLEKNYCRNPDGDVGGPWCYTTNPRKLYDYCDVPQCAAPSFDCGKPQVEPKKCPGRVVGGCVAHPHSWPWQVSLRTRFGMHFCGGTLISPEWVLTAAHCLEKSPRPSSYKVILGAHQEVNLEPHVQEIEVSRLFLEPTRKDIALLKLSSPAVITDKVIPACLPSPNYVVADRTECFITGWGETQGTFGAGLLKEAQLPVIENKVCNRYEFLNGRVQSTELCAGHLAGGTDSCQGDSGGPLVCFEKDKYILQGVTSWGLGCARPNKPGVYVRVSRFVTWIEGVMRNN
modifications: directly biotinylated in the assays of Examples 7-9; coupled to Sepharose in Example 1
notes: The same entry is used for unlabelled, biotinylated and Sepharose-coupled plasminogen; also called Plg; biotinylated plasminogen

What was measured:
[1] = molecular target: B3; assay: ELISA, detection control: plasminogen bound to BSA-coupled peptide, isotype control instead of anti-plasminogen MAb
[2] = molecular target: T1, plasminogen fragment K4 (UniProt P00747 374-459); assay: competition ELISA against biotinylated plasminogen on immobilized peptide
T1 construct: range 354-439
T1 sequence (looked up): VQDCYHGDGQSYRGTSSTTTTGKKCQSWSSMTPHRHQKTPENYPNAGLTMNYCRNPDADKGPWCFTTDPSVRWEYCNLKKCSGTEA
Description: (§1) 9. Recognition of Plg-RKT by Plasminogen Fragments in Other Assays to Define the ligand recognition specificity of Plg-RKT for plasminogen. the Plg-RKT polypeptide, […] (SEQ ID NO: 33), was coupled to microtiter wells. Plasminogen was directly biotinylated and then incubated with the immobilized peptide and detected with streptavidin-HRP, as above. (Plasminogen bound to the peptide in a concentration-dependent manner. In controls for specificity, biotinylated-Plg binding was competed by unlabeled Plg and no biotinylated-Plg binding to the reverse peptide was detected.) Plasminogen domains containing disulfide bonded kringle (K) structures were obtained by elastase digestion as described ³⁹. (K1-3 is comprised of the plasminogen amino acid sequences, Tyr⁷⁹-Val³³⁷ or Tyr⁷⁹-Val³⁵³. K4 is contained within the plasminogen amino acid sequences, Val³⁵⁴-Ala⁴³⁹. K5-PD is contained within the plasminogen amino acid sequences, Val⁴⁴²-Asn⁷⁹⁰ and contains kringle 5 as well as the latent protease domain.)

[3] = molecular target: T2, plasminogen fragment K1-3 (UniProt P00747 99-357); assay: as above
T2 construct: range 79-337 or 79-353; it may not count on the precursor entry
Description: as §1

[4] = molecular target: B3; assay: competition ELISA, soluble peptide against biotinylated plasminogen on immobilized …-BSA
[5] = molecular target: B1; assay: ELISA on BSA-coupled peptide, anti-plasminogen MAb detection
Source text: Our isolation method was consistent with exposure of the carboxyl-terminus of Plg-RKT (with its carboxyl-terminal lysine) on the cell surface and also with the ability of the carboxyl-terminal domain to bind to plasminogen. For verification, we tested whether a synthetic peptide, corresponding to the C-terminus of Plg-RKT could bind plasminogen. The peptide, […] (SEQ ID NO: 33) corresponding to the ten C-terminal amino acids of Plg-RKT with cysteine substituted for R₁₃₈) was coupled to bovine serum albumin (BSA) and then coated onto wells of microtiter plates at 10 μg/ml. The wells were blocked with 5% BSA. Plasminogen (0.2 μM) was incubated with the wells, followed by our anti-plasminogen MAb ³⁶ and detection with HRP-conjugated goat anti-mouse IgG (Biosource, Camarillo, Calif.). Plasminogen bound to the peptide in a concentration dependent manner with 50% maximal binding achieved at a plasminogen concentration of ˜10 nM. The binding was specific because it was blocked in the presence of epsilon-aminocaproic acid (EACA), consistent with the ability of EACA to inhibit plasminogen binding to differentiated Hoxa9-ER4 cells. […] In controls for the detection method, O.D.₄₉₀ values obtained using an isotype control antibody or in the absence of added plasminogen were <5% of the values for plasminogen binding to the BSA-coupled peptide detected with anti-plasminogen MAb.

isotype control antibody (Example 4)
O.D.490 as percent of the value with anti-plasminogen MAb [1]: < 5%

B1
binding result [2]: binds | binding result [3]: binds

B2: peptide CEQSRFFIDK (SEQ ID NO: 34), corresponding to the C terminus of human Plg-RKT (peptide)
peptide: CEQSRFFIDK
notes: also called wild type peptide
IC50 [4]: 1 µM

B3
EC50 [5]: ~0.01 µM
